Test results published in patent publication US20110064726A1 (published 2011).

Tests used:
[1] = biological target: T1, human IgE (full length human immunoglobulin E) (human, UniProt P01854 1-546); experiment: serum free IgE depletion ELISA; DIN 0155, initial free IgE 93 ng/mL
[2] = biological target: T1, human IgE (full length human …); experiment: serum free IgE depletion ELISA; DIN 0623 experiment 2, initial free IgE 133 ng/mL
[3] = biological target: T1, human IgE (full length human …); experiment: serum free IgE depletion ELISA; DIN 0347, initial free IgE 221 ng/mL
[4] = biological target: T1, human IgE (full length human …); experiment: serum free IgE depletion ELISA; DIN 0011 experiment 2, initial free IgE 326 ng/mL
human IgA = biological target: T2, human IgA (human); experiment: ELISA, immunoglobulin coated at 4 µg/mL, anti-human IgG2 detection
T2 construct: bought preparation coated on the ELISA plate
Procedure: (§1) Wells were washed 3× with 150 μL wash buffer (0.05% Tween-20 (Sigma, Cat. No. P7949)/PBS) then blocked with 150 μL/well blocking buffer (2.5% BSA (Sigma, Cat. No. A7030)/PBS) for 2 hours at room temperature. Wells were washed 3× with 150 μL wash buffer/well. […] Antibodies were diluted in diluent buffer (PBS/1% BSA/0.05% Tween-20) and this was added to blank control wells (duplicate wells for each secondary antibody used). Antibodies were incubated for 2 hours at room temperature. Wells were washed 3× with 150 μL wash buffer/well. Binding of control antibodies to immunoglobulin was detected with anti-mouse IgG-HRP conjugate (Sigma, Cat. No. A4416) diluted 1:8000 in diluent buffer. 50 μL/well was added to control antibody and blank wells. Wells were incubated for 1 hour at room temperature, then washed 3× with 150 μL wash buffer/well. 50 μl OPD (Dako, Cat. No. […] Wells were incubated for 1 hour at room temperature then washed 3× with 150 μL wash buffer/well. Streptavidin-HRP (Amersham Bioscience, Cat. No. RPN 1231) diluted 1:2000 in diluent buffer was added to all wells and incubated for 45 minutes at room temperature. Wells were washed (3×150 μL wash buffer).

human IgG3 = biological target: T3, human IgG3 (human, UniProt P01860-1 1-377); experiment: as above
T3 construct: bought preparation coated on the ELISA plate; not shown: bought immunoglobulin, light chain not described
Procedure: as §1

[5] = biological target: T1, human IgE (full length human …); experiment: as above
Procedure: as §1

human IgG1 = biological target: T4, human IgG1 (human, UniProt P01857-1 1-330 = IgG part); experiment: as above
T4 construct: bought preparation coated on the ELISA plate; not shown: bought immunoglobulin, light chain not described
Procedure: as §1

[6] = biological target: T1, human IgE (full length human …); experiment: serum free IgE depletion ELISA; DIN 0382, initial free IgE 2827 ng/mL
[7] = biological target: T1, human IgE (full length human …); experiment: serum free IgE depletion ELISA; DIN 0591, initial free IgE 152 ng/mL
[8] = biological target: T1, human IgE (full length human …); experiment: serum free IgE depletion ELISA; DIN 0321 experiment 1, initial free IgE 262 ng/mL
[9] = biological target: T1, human IgE (full length human …); experiment: serum free IgE depletion ELISA; DIN 0632 experiment 2, initial free IgE 289 ng/mL
[10] = biological target: T1, human IgE (full length human …); experiment: serum free IgE depletion ELISA; DIN 0321 experiment 2, initial free IgE 265 ng/mL
[11] = biological target: T1, human IgE (full length human …); experiment: serum free IgE depletion ELISA; DIN 0649, initial free IgE 93 ng/mL
[12] = biological target: T1, human IgE (full length human …); experiment: serum free IgE depletion ELISA; DIN 0284, initial free IgE 339 ng/mL
[13] = biological target: T1, human IgE (full length human …); experiment: serum free IgE depletion ELISA; DIN 0451 experiment 2, initial free IgE 534 ng/mL
[14] = biological target: T1, human IgE (full length human …); experiment: serum free IgE depletion ELISA; DIN 0748, initial free IgE 4609 ng/mL
[15] = biological target: T1, human IgE (full length human …); experiment: serum free IgE depletion ELISA; DIN 0451 experiment 1, initial free IgE 557 ng/mL
[16] = biological target: T1, human IgE (full length human …); experiment: serum free IgE depletion ELISA; DIN 0623 experiment 1, initial free IgE 145 ng/mL
[17] = biological target: T1, human IgE (full length human …); experiment: serum free IgE depletion ELISA; DIN 0632 experiment 1, initial free IgE 532 ng/mL
[18] = biological target: T1, human IgE (full length human …); experiment: serum free IgE depletion ELISA; DIN 0011 experiment 1, initial free IgE 555 ng/mL

T1 sequence (P01854 whole entry): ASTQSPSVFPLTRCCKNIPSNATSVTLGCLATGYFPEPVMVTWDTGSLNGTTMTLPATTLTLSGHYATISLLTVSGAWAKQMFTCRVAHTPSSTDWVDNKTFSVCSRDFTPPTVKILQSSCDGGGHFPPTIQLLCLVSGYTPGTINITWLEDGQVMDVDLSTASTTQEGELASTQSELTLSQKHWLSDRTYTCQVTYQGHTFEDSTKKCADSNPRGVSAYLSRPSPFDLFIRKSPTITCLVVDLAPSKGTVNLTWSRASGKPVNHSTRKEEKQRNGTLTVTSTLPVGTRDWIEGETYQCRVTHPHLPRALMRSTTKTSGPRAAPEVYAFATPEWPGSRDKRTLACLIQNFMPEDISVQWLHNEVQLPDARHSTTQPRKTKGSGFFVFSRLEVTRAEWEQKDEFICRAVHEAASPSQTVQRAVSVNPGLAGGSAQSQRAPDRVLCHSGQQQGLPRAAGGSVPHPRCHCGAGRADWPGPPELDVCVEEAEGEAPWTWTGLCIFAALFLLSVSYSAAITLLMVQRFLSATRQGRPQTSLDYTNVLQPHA
T4 sequence (P01857 other isoform, or with tags, fused parts or gaps): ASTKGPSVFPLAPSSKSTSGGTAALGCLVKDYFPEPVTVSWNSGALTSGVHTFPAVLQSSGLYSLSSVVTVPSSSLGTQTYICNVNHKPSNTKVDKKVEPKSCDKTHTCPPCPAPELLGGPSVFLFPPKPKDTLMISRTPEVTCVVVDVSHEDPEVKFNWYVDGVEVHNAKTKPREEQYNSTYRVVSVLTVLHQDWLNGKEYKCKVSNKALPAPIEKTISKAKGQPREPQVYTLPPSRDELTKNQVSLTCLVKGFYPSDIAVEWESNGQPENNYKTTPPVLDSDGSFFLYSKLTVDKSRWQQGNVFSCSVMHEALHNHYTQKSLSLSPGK
T3 sequence (P01860 other isoform, or with tags, fused parts or gaps): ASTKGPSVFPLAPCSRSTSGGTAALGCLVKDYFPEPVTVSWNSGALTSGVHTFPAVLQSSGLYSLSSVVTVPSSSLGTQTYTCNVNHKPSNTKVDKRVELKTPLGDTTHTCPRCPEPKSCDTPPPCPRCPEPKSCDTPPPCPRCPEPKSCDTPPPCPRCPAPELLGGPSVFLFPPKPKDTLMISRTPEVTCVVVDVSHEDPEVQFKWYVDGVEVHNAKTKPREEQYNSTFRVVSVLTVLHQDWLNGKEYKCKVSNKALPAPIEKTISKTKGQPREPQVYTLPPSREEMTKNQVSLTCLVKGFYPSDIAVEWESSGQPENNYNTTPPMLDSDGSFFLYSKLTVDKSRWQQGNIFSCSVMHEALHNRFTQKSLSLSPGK

B1: recombinant 5.948.1 (antibody, human IgG2, kappa, V domains shown)
VH: QVQLVQSGAEVKKPGASVKVSCKASGYTFTSYDINWVRQATGQGLEWMGWMDPNSGNTGYAQKFQGRVTMTRNTSISTAYMELSSLRSEDTAVYYCARGHYDSDGYYSFSGMDVWGQGTTVTVSS
VL: not shown
notes: human IgG2 kappa; two batches (762.8 µg/mL and 5.2 mg/mL) were tested; also called 5.948.1 (recombinant); 5.948.1 - Batch 1
IC25ng/mL [1]: 1.81 µg/mL
IC25ng/mL [2]: 4.13 µg/mL
IC25ng/mL [3]: 4.92 µg/mL
IC25ng/mL [4]: 6.34 µg/mL
A290 nm (human IgA): 0.04 absorbance
A290 nm (human IgG3): 0.04 absorbance
A290 nm [5]: 2.57 absorbance
A290 nm (human IgG1): 0.07 absorbance
IC25ng/mL [6]: 25 µg/mL
IC25ng/mL [7]: 2.35 µg/mL
IC25ng/mL [8]: 1.34 µg/mL
IC25ng/mL [9]: 6.31 µg/mL
IC25ng/mL [10]: 7.9 µg/mL
IC25ng/mL [11]: 1.95 µg/mL
IC25ng/mL [12]: 2.45 µg/mL
IC25ng/mL [13]: 39.7 µg/mL
IC25ng/mL [14]: 25.1 µg/mL
IC25ng/mL [15]: 11.6 µg/mL
IC25ng/mL [16]: 0.5 µg/mL
IC25ng/mL [17]: 8.91 µg/mL
IC25ng/mL [18]: 3.3 µg/mL
